Consider 1 protein from paper doi:10.1101/2023.12.10.570962 (bioRxiv, 2023).

This data set deals with the molecule itself. Nature of the data set: SEC-MALS. A general note: Size exclusion chromatography separates by hydrodynamic size, large species first.

For orientation: stoichiometry N means a count of units in the complex or per binding partner.

B1: Lcl C-terminal domain (Lcl-CTD), residues 252 to 401 (domain or fragment)
chain: MAHHHHHHVDDDDKMETGQVLAKSNDLDFNTMWVDPANSGIRRQLGDKALGGTVIYVNALGTHGLVVANSDQVNSNTWWDAQDSITNPAHFDNEGKLYSDWRLPTRFELNLIYMMRNELGNFLAGNYWSSIEKSSANSWVFNSKTGEIKDIAKSKTAAVRAVRAF
On to B1, for which the “stoichiometry N” value turned out to be 3.
